{"source": "paper PMC5538626", "about": "(2017)", "parents": {"B1": {"name": "PLEKHM1‐LIR WT peptide (EDEWVNVQY), biotinylated [modified: biotin; biotin] [not stated] / 6xHis‐tagged LC3B [human] (parent complex)", "chain 1": "EDEWVNVQY", "chain 2": "not shown"}, "B2": {"name": "PLEKHM1‐LIR WT peptide (EDEWVNVQY), biotinylated [modified: biotin; biotin] [not stated] / 6xHis‐tagged LC3C [human] (parent complex)", "chain 1": "EDEWVNVQY", "chain 2": "MPPPQKIPSVRPFKQRKSLAIRQEEVAGIRAKFPNKIPVVVERYPRETFLPPLDKTKFLVPQELTMTQFLSIIRSRMVLRATEAFYLLVNNKSLVSMSATMAEIYRDYKDEDGFVYMTYASQETFG"}, "B3": {"name": "PLEKHM1‐LIR WT peptide (EDEWVNVQY), biotinylated [modified: biotin; biotin] [not stated] / 6xHis‐tagged GABARAP‐L1 [human] (parent complex)", "chain 1": "EDEWVNVQY", "chain 2": "not shown"}}}
{"variants_of": "B1", "experiment": "peptide array (biotinylated LIR peptide, 6xHis-mATG8, absorbance); n = 3; read off a plot", "units": {"percent of parent": "% Mutant LIR/WT"}}
{"variant": "chain 1 W4F", "percent of parent": "~8"}
{"variant": "chain 1 V7L", "percent of parent": "~250"}
{"variant": "chain 1 W4Y", "percent of parent": "~10"}
{"variant": "chain 1 V7I", "percent of parent": "~200"}
{"variant": "chain 1 W4A, chain 1 V7A", "percent of parent": "~8"}
{"variants_of": "B1", "experiment": "peptide array (biotinylated LIR peptide, 6xHis-mATG8, absorbance); n = 5; read off a plot"}
{"variant": "chain 1 W4A, chain 1 V7A", "ratio to parent": "~0.17"}
{"variant": "chain 1 V5C, chain 1 N6V, chain 1 V7L", "ratio to parent": "~2.3"}
{"variant": "chain 1 V5C, chain 1 N6I, chain 1 V7L", "ratio to parent": "~2.4"}
{"variant": "chain 1 V5C, chain 1 N6F, chain 1 V7L", "ratio to parent": "~1.9"}
{"variants_of": "B2", "experiment": "peptide array (biotinylated LIR peptide, 6xHis-mATG8, absorbance); n = 3; read off a plot", "units": {"percent of parent": "% Mutant LIR/WT"}}
{"variant": "chain 1 W4Y", "percent of parent": "~25"}
{"variant": "chain 1 V7L", "percent of parent": "~85"}
{"variant": "chain 1 W4F", "percent of parent": "~50"}
{"variant": "chain 1 V7I", "percent of parent": "~110"}
{"variant": "chain 1 W4A, chain 1 V7A", "percent of parent": "~5"}
{"variants_of": "B2", "experiment": "peptide array ELISA (biotinylated peptide on streptavidin plate, 6xHis-mATG8, anti-His-HRP, TMB); absorbance at 450 nm; n = 4; read off a plot", "units": {"screen value": "fold over mutLIR"}}
{"variant": "chain 1 V5A", "screen value": "~1.5"}
{"variant": "chain 1 V7A", "screen value": "~1.4"}
{"variant": "chain 1 N6A", "screen value": "~1.7"}
{"variant": "chain 1 V5A, chain 1 N6A", "screen value": "~1.2"}
{"variants_of": "B3", "experiment": "peptide array (biotinylated LIR peptide, 6xHis-mATG8, absorbance); n = 3; read off a plot", "units": {"percent of parent": "% Mutant LIR/WT"}}
{"variant": "chain 1 W4Y", "percent of parent": "~55"}
{"variant": "chain 1 V7L", "percent of parent": "~110"}
{"variant": "chain 1 V7I", "percent of parent": "~95"}
{"variant": "chain 1 W4A, chain 1 V7A", "percent of parent": "~7"}
{"variant": "chain 1 W4F", "percent of parent": "~60"}
{"variants_of": "B3", "experiment": "peptide array ELISA (biotinylated peptide on streptavidin plate, 6xHis-mATG8, anti-His-HRP, TMB); absorbance at 450 nm; n = 4; read off a plot", "units": {"screen value": "fold over mutLIR"}}
{"variant": "chain 1 N6A", "screen value": "~9.9"}
{"variant": "chain 1 V5A, chain 1 N6A", "screen value": "~1.3"}
{"variant": "chain 1 V5A", "screen value": "~1.7"}
{"variant": "chain 1 V7A", "screen value": "~2"}
